81 substances from the Human Domainome abundance scans (Beltran et al. 2025) can be followed below.

± gives the uncertainty stated by the source.

This series can be described thus: abundance fitness (aPCA) (normalised: wild type 0, dead -1); higher = more abundant; growth selection in yeast, the domain comes from the species named. Conditions: Homo sapiens.
Substance “BAG family molecular chaperone regulator 3 N16K, O95817” yielded an abundance fitness of 1.04 ± 0.12.

“BAG family molecular chaperone regulator 3 N16L, O95817” had an abundance fitness of 0.33 ± 0.1. As for “BAG family molecular chaperone regulator 3 N16M, O95817”, the figure is 0.276 ± 0.065; as for “BAG family molecular chaperone regulator 3 N16P, O95817”, 0.153 ± 0.14. As for “BAG family molecular chaperone regulator 3 N16Q, O95817”, the figure is 0.465 ± 0.17; as for “BAG family molecular chaperone regulator 3 N16R, O95817”, 0.231 ± 0.065.

As for “BAG family molecular chaperone regulator 3 N16T, O95817”, the abundance fitness was determined as 0.666 ± 0.11. With “BAG family molecular chaperone regulator 3 N16V, O95817”, the abundance fitness was 0.368 ± 0.1. As for “BAG family molecular chaperone regulator 3 N16Y, O95817”, the figure is 0.117 ± 0.1. In turn, “BAG family molecular chaperone regulator 3 N43A, O95817” registered an abundance fitness of -0.331 ± 0.087. Take “BAG family molecular chaperone regulator 3 N43C, O95817”: the abundance fitness is -0.681 ± 0.38. In turn, “BAG family molecular chaperone regulator 3 N43D, O95817” yielded an abundance fitness of -0.622 ± 0.31. Turning to “BAG family molecular chaperone regulator 3 N43G, O95817”, the abundance fitness was -0.531 ± 0.14. As for “BAG family molecular chaperone regulator 3 N43H, O95817”, the figure is -0.384 ± 0.38. With “BAG family molecular chaperone regulator 3 N43K, O95817” the figure was -0.648 ± 0.24; with “BAG family molecular chaperone regulator 3 N43L, O95817”, -0.629 ± 0.12; with “BAG family molecular chaperone regulator 3 N43P, O95817”, -0.42 ± 0.3. With “BAG family molecular chaperone regulator 3 N43Q, O95817” the figure was -0.435 ± 0.43. “BAG family molecular chaperone regulator 3 N43R, O95817” had an abundance fitness of -0.549 ± 0.12. With “BAG family molecular chaperone regulator 3 N43S, O95817” the figure was 0.004 ± 0.2; with “BAG family molecular chaperone regulator 3 N43T, O95817”, -0.416 ± 0.085; with “BAG family molecular chaperone regulator 3 N43V, O95817”, -0.418 ± 0.12. Consider “BAG family molecular chaperone regulator 3 N43W, O95817”, for which the abundance fitness is -0.415 ± 0.42.

Substance “BAG family molecular chaperone regulator 3 N43Y, O95817” showed an abundance fitness of -0.366 ± 0.4. “BAG family molecular chaperone regulator 3 N50A, O95817” yielded an abundance fitness of 0.249 ± 0.15. The substance “BAG family molecular chaperone regulator 3 N50C, O95817” gave an abundance fitness of 0.032 ± 0.13.

On to “BAG family molecular chaperone regulator 3 N50D, O95817”, for which the abundance fitness was -0.126 ± 0.2. With “BAG family molecular chaperone regulator 3 N50E, O95817” the figure was 0.063 ± 0.096. As for “BAG family molecular chaperone regulator 3 N50F, O95817”, the figure is 0.181 ± 0.11; as for “BAG family molecular chaperone regulator 3 N50G, O95817”, -0.358 ± 0.13. Substance “BAG family molecular chaperone regulator 3 N50H, O95817” showed an abundance fitness of -0.166 ± 0.19.

Consider “BAG family molecular chaperone regulator 3 N50I, O95817”, for which the abundance fitness amounted to 0.656 ± 0.23.

The substance “BAG family molecular chaperone regulator 3 N50K, O95817” displayed an abundance fitness of -0.176 ± 0.11. Substance “BAG family molecular chaperone regulator 3 N50L, O95817” showed an abundance fitness of -0.181 ± 0.17. With “BAG family molecular chaperone regulator 3 N50M, O95817” the figure was -0.255 ± 0.086; with “BAG family molecular chaperone regulator 3 N50P, O95817”, -0.353 ± 0.31; with “BAG family molecular chaperone regulator 3 N50Q, O95817”, -0.176 ± 0.1.

The substance “BAG family molecular chaperone regulator 3 N50R, O95817” showed an abundance fitness of -0.034 ± 0.13. As to “BAG family molecular chaperone regulator 3 N50S, O95817”, the abundance fitness was -0.26 ± 0.085.

For the substance “BAG family molecular chaperone regulator 3 N50T, O95817”, the abundance fitness was -0.435 ± 0.11. With “BAG family molecular chaperone regulator 3 N50W, O95817” the figure was 0.441 ± 0.15; with “BAG family molecular chaperone regulator 3 N50Y, O95817”, 0.235 ± 0.16; with “BAG family molecular chaperone regulator 3 P21A, O95817”, 0.383 ± 0.085. On to “BAG family molecular chaperone regulator 3 P21C, O95817”, for which the abundance fitness stood at 0.548 ± 0.1. As for “BAG family molecular chaperone regulator 3 P21D, O95817”, the figure is -0.124 ± 0.16; as for “BAG family molecular chaperone regulator 3 P21E, O95817”, 0.307 ± 0.12; as for “BAG family molecular chaperone regulator 3 P21F, O95817”, 0.097 ± 0.21.

“BAG family molecular chaperone regulator 3 P21G, O95817”: the abundance fitness is 0.43 ± 0.057.

In turn, “BAG family molecular chaperone regulator 3 P21H, O95817” showed an abundance fitness of -0.103 ± 0.26. As for “BAG family molecular chaperone regulator 3 P21K, O95817”, the figure is 0.439 ± 0.059; as for “BAG family molecular chaperone regulator 3 P21L, O95817”, -0.112 ± 0.094; as for “BAG family molecular chaperone regulator 3 P21M, O95817”, 0.673 ± 0.18. On to “BAG family molecular chaperone regulator 3 P21N, O95817”, for which the abundance fitness is -0.081 ± 0.21.

In turn, “BAG family molecular chaperone regulator 3 P21Q, O95817” came in with an abundance fitness of 0.192 ± 0.063. Regarding “BAG family molecular chaperone regulator 3 P21R, O95817”, the abundance fitness worked out at 0.382 ± 0.081.

The substance “BAG family molecular chaperone regulator 3 P21S, O95817” gave an abundance fitness of 0.349 ± 0.089.

In the case of “BAG family molecular chaperone regulator 3 P21V, O95817”, the abundance fitness stood at 0.443 ± 0.063. With “BAG family molecular chaperone regulator 3 P21W, O95817” the figure was -0.543 ± 0.086; with “BAG family molecular chaperone regulator 3 P21Y, O95817”, -0.152 ± 0.21. With “BAG family molecular chaperone regulator 3 P23A, O95817” the figure was -0.378 ± 0.16; with “BAG family molecular chaperone regulator 3 P23C, O95817”, -0.932 ± 0.19; with “BAG family molecular chaperone regulator 3 P23E, O95817”, -0.544 ± 0.14. As for “BAG family molecular chaperone regulator 3 P23F, O95817”, the abundance fitness was -0.697 ± 0.44. Turning to “BAG family molecular chaperone regulator 3 P23G, O95817”, the abundance fitness was -0.622 ± 0.18. With “BAG family molecular chaperone regulator 3 P23H, O95817” the figure was 0.173 ± 0.23. With “BAG family molecular chaperone regulator 3 P23I, O95817” the figure was -0.612 ± 0.22; with “BAG family molecular chaperone regulator 3 P23K, O95817”, -0.604 ± 0.094. As for “BAG family molecular chaperone regulator 3 P23L, O95817”, the figure is -0.858 ± 0.2; as for “BAG family molecular chaperone regulator 3 P23M, O95817”, -0.772 ± 0.34.

Substance “BAG family molecular chaperone regulator 3 P23Q, O95817” had an abundance fitness of -0.83 ± 0.33. With “BAG family molecular chaperone regulator 3 P23S, O95817” the figure was -0.864 ± 0.26; with “BAG family molecular chaperone regulator 3 P23W, O95817”, -0.692 ± 0.095; with “BAG family molecular chaperone regulator 3 P23Y, O95817”, -0.54 ± 0.29. As for “BAG family molecular chaperone regulator 3 P24A, O95817”, the figure is -0.464 ± 0.096; as for “BAG family molecular chaperone regulator 3 P24C, O95817”, -0.489 ± 0.29.

The substance “BAG family molecular chaperone regulator 3 P24D, O95817” returned an abundance fitness of -0.597 ± 0.36.

Consider “BAG family molecular chaperone regulator 3 P24F, O95817”, for which the abundance fitness is -0.383 ± 0.31.

Substance “BAG family molecular chaperone regulator 3 P24G, O95817” had an abundance fitness of -0.77 ± 0.22.

“BAG family molecular chaperone regulator 3 P24K, O95817” returned an abundance fitness of 0.269 ± 0.16. As for “BAG family molecular chaperone regulator 3 P24M, O95817”, the figure is -0.662 ± 0.21; as for “BAG family molecular chaperone regulator 3 P24N, O95817”, 0.135 ± 0.24.
